Literature values in paper PMC8151241.
pKd: −log10 of the molar value.

Legend:
[1] = target: GAPDH (Chlamydomonas reinhardtii) (UniProt P50362)
[2] = target: PRK (Chlamydomonas reinhardtii) (UniProt P19824)
[3] = target: CP12-GAPDH complex (Chlamydomonas reinhardtii) (UniProt A6Q0K5)

UniProt P50362, sequence (P50362 35-374): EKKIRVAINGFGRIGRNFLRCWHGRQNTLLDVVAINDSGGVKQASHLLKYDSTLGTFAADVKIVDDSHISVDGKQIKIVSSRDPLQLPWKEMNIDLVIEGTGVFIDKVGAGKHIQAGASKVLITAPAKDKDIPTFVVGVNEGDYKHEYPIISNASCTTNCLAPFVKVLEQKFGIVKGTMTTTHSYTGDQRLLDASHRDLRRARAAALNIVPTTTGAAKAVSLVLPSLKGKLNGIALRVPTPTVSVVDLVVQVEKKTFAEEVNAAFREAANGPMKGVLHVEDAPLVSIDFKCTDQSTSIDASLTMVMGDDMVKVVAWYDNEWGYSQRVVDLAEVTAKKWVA

Row | Substance | pKd [1] | pKd [2] | pKd [3]
1 | CP12 (from UniProt A6Q0K5) | 9.40 | 5.89 | 
2 | PRK (from UniProt P19824) |  |  | 7.22
